# The supplement of paper PMC7125110
# ± gives the standard error. For some of these results: Variants at the floor of the assay were thinned out.
# B1: glmS ribozyme (parent)
# chain: AUAAAAGCGCCAGAACUACAGAAAUGUAGUUGACGAGGAGGAGGUUUAUCGAAUUUUCGGCGGAUGCCUCCAAA
# Experiments:
# Conditions in all cases: with glucosamine-6-phosphate
# glucosamine-6-phosphate [1] = variants of: B1; assay: kcat; higher = faster cleavage; RNA array
# In short: (§1)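 Using a hybridised Cy3 probe at 37 °C, barcoded ribozyme variants transcribed in situ by E. coli RNA polymerase on sequenced MiSeq chips were monitored across tiles imaged over ~14 h. The flow contained glucosamine-6-phosphate from 40 μM to 10 mM in HEPES/KCl/Mg(OAc)2 buffer. Signals were normalised to baseline and to non-cleaving reference variants before per-tile medians were fit to one- or two-exponential decays to yield kobs. Weighted Michaelis–Menten fits across concentrations gave kcat and KM.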
# glucosamine-6-phosphate [2] = variants of: B1; assay: KM; higher = weaker cofactor use; RNA array
# In short: as §1
# glucosamine-6-phosphate [3] = variants of: B1; assay: self-cleavage kobs at 640 uM GlcN6P; higher = faster cleavage; RNA array
# In short: as §1
# glucosamine-6-phosphate [4] = variants of: B1; assay: self-cleavage kobs at 40 uM GlcN6P; higher = faster cleavage; RNA array
# In short: as §1
# glucosamine-6-phosphate [5] = variants of: B1; assay: self-cleavage kobs at 160 uM GlcN6P; higher = faster cleavage; RNA array
# In short: as §1
# glucosamine-6-phosphate [6] = variants of: B1; assay: self-cleavage kobs at 2500 uM GlcN6P; higher = faster cleavage; RNA array
# In short: as §1
# glucosamine-6-phosphate [7] = variants of: B1; assay: self-cleavage kobs at 10000 uM GlcN6P; higher = faster cleavage; RNA array
# In short: as §1
Variant,kcat (glucosamine-6-phosphate [1]) [s⁻¹],KM (glucosamine-6-phosphate [2]) [µM],self-cleavage kobs at 640 uM GlcN6P (glucosamine-6-phosphate [3]) [s⁻¹],self-cleavage kobs at 40 uM GlcN6P (glucosamine-6-phosphate [4]) [s⁻¹],self-cleavage kobs at 160 uM GlcN6P (glucosamine-6-phosphate [5]) [s⁻¹],self-cleavage kobs at 2500 uM GlcN6P (glucosamine-6-phosphate [6]) [s⁻¹],self-cleavage kobs at 10000 uM GlcN6P (glucosamine-6-phosphate [7]) [s⁻¹]
G32C U47G,1.21e-05 ± 1.1e-07,403 ± 39,–,–,–,–,–
A36U G37A,1.19e-05 ± 3e-06,–,–,–,–,–,–
C34A G38C,< 1e-05,–,< 1e-05,–,–,–,–
A36U A39C,< 1e-05,–,–,< 1e-05,< 1e-05,< 1e-05,< 1e-05
G37C C61A,< 1e-05,–,–,–,–,–,–
A33U G59U,< 1e-05,–,< 1e-05,< 1e-05,–,< 1e-05,–
G32A G66C,5.52e-05 ± 1.5e-06,1250 ± 160,–,–,–,3.72e-05 ± 1.6e-05,4.9e-05 ± 1.4e-05
G32A U47G,0.00115 ± 0.0003,3780 ± 1600,0.000142 ± 3e-05,–,5.19e-05 ± 1.5e-05,0.000687 ± 0.00015,0.000806 ± 0.00013
G32A C67U C71G,8.98e-05 ± 2.5e-05,–,0.000178 ± 4.1e-05,5.63e-05 ± 2.5e-05,9.79e-05 ± 2.3e-05,9.42e-05 ± 2.9e-05,5.54e-05 ± 2.2e-05
A33G C70A,1.84e-05 ± 4.6e-06,–,–,–,–,–,–
G32U G40C,0.000104 ± 1.3e-05,1250 ± 520,2.66e-05 ± 1.3e-05,–,–,7.79e-05 ± 1.1e-05,8.66e-05 ± 1.3e-05
G32U G40U,0.000265 ± 3e-05,7170 ± 1300,1.68e-05 ± 7.3e-06,–,–,7.08e-05 ± 7.2e-06,0.000153 ± 1.6e-05
G37A A42G,0.00683 ± 0.0013,3670 ± 920,0.000936 ± 0.00014,8.75e-05 ± 1.5e-05,0.000301 ± 8.8e-05,0.00251 ± 0.00044,0.00549 ± 0.00094
G37A A42U,0.000872 ± 0.00012,2220 ± 480,0.000193 ± 2.3e-05,2.47e-05 ± 1.1e-05,5.06e-05 ± 1.2e-05,0.00052 ± 6.6e-05,0.000669 ± 9.4e-05
A33U U65A,3.37e-05 ± 1.5e-06,–,< 1e-05,< 1e-05,< 1e-05,–,–
A33U U47G,4.65e-05 ± 3.9e-06,–,–,< 1e-05,–,4.09e-05 ± 6.6e-06,4.2e-05 ± 5.3e-06
G37A A64G,0.00317 ± 0.0014,–,0.000337 ± 6.8e-05,6.01e-05 ± 1.3e-05,5.16e-05 ± 2.1e-05,0.000977 ± 0.00019,0.002 ± 0.00025
